Results published in patent US20100178280.

T1: acetylated p53 peptides (p53-382/diAc), P04637
T1 chain: RHKK


Biological target: T1, acetylated p53 peptides (p53-382/diAc), …

Protein | deacetylation of acetylated p53 peptides in vitro (fluorometric deacetylation assay) | deacetylation of p53 peptides in vitro (fluorometric deacetylation assay)
recombinant mouse Sirt7 protein (protein) MAAGGGLSRSERKAAERVRRLREEQQRERLRQVSRILRKAAAERSAEEGRLLAESEDLVTELQGRSRRREGLKRRQEEVCDDPEELRRKVRELAGAVRSARHLVVYTGAGISTAASIPDYRGPNGVWTLLQKGRPVSAADLSEAEPTLTHMSITRLHEQKLVQHVVSQNCDGLHLRSGLPRTAISELHGNMYIEVCTSCIPNREYVRVFDVTERTALHRHLTGRTCHKCGTQLRDTIVHFGERGTLGQPLNWEAATEAASKADTILCLGSSLKVLKKYPRLWCMTKPPSRRPKLYIVNLQWTPKDDWAALKLHGKCDDVMQLLMNELGLEIPVYNRWQDPIFSLATPLRAGEEGSHSRKSLCRSREEAPPGDQSDPLASAPPILGGWFGRGCAKRAKRKKVA | p53 acetylated peptides were efficiently deacetylated by Sirt7 in vitro | Sirt7 and Sirt1 deacetylate p53 peptides in vitro
recombinant mouse Sirt1 protein (protein) MADEVALALQAAGSPSAAAAMEAASQPADEPLRKRPRRDGPGLGRSPGEPSAAVAPAAAGCEAASAAAPAALWREAAGAAASAEREAPATAVAGDGDNGSGLRREPRAADDFDDDEGEEEDEAAAAAAAAAIGYRDNLLLTDGLLTNGFHSCESDDDDRTSHASSSDWTPRPRIGPYTFVQQHLMIGTDPRTILKDLLPETIPPPELDDMTLWQIVINILSEPPKRKKRKDINTIEDAVKLLQECKKIIVLTGAGVSVSCGIPDFRSRDGIYARLAVDFPDLPDPQAMFDIEYFRKDPRPFFKFAKEIYPGQFQPSLCHKFIALSDKEGKLLRNYTQNIDTLEQVAGIQRILQCHGSFATASCLICKYKVDCEAVRGDIFNQVVPRCPRCPADEPLAIMKPEIVFFGENLPEQFHRAMKYDKDEVDLLIVIGSSLKVRPVALIPSSIPHEVPQILINREPLPHLHFDVELLGDCDVIINELCHRLGGEYAKLCCNPVKLSEITEKPPRPQKELVHLSELPPTPLHISEDSSSPERTVPQDSSVIATLVDQATNNNVNDLEVSESSCVEEKPQEVQTSRNVENINVENPDFKAVGSSTADKNERTSVAETVRKCWPNRLAKEQISKRLEGNQYLFVPPNRYIFHGAEVYSDSEDDVLSSSSCGSNSDSGTCQSPSLEEPLEDESEIEEFYNGLEDDTERPECAGGSGFGADGGDQEVVNEAIATRQELTDVNYPSDKS |  | Sirt7 and Sirt1 deacetylate p53 peptides in vitro
